According to PMC8213806 (Nature Communications, 2021):

Legend:
Experiment in all cases: pull-down
Conditions in all cases: both partners purified
[1] = biological target: TcdB1 holotoxin L563G/I566G (Clostridioides difficile (VPI10463 …, UniProt P18177 1-2366, L563G | I566G))
[2] = biological target: TcdB1 holotoxin S567E (Clostridioides difficile (VPI10463 …, UniProt P18177 1-2366, S567E))
[3] = biological target: TcdB1 holotoxin N1850A (Clostridioides difficile (VPI10463 …, UniProt P18177 1-2366, N1850A))
[4] = biological target: TcdB1 holotoxin Y621A (Clostridioides difficile (VPI10463 …, UniProt P18177 1-2366, Y621A))
[5] = biological target: TcdB1 holotoxin Y603G (Clostridioides difficile (VPI10463 …, UniProt P18177 1-2366, Y603G))
[6] = biological target: TcdB1 holotoxin F1823G/I1825G/M1831G (Clostridioides difficile (VPI10463 …, UniProt P18177 1-2366, F1823G | I1825G | M1831G))
[7] = biological target: TcdB1 holotoxin N1758A (Clostridioides difficile (VPI10463 …, UniProt P18177 1-2366, N1758A))
[8] = biological target: TcdB1 holotoxin V1816G/L1818G (Clostridioides difficile (VPI10463 …, UniProt P18177 1-2366, V1816G | L1818G))
[9] = biological target: TcdB1 holotoxin D1812G (Clostridioides difficile (VPI10463 …, UniProt P18177 1-2366, D1812G))

Measured: binding result

B1: Repeat1-Fc (CSPG4 Repeat1, residues 410–551, fused to the N-terminus of human IgG1 Fc) (Fc fusion)
chain: ELPEPCVPEPGLPPVFANFTQLLTISPLVVAEGGTAWLEWRHVQPTLDLMEAELRKSQVLFSVTRGARHGELELDIPGAQARKMFTLLDVVNRKARFIHDGSEDTSDQLVLEVSVTARVPMPSCLRRGQTYLLPIQVNPVND
notes: also called CSPG4 decoy; source: FreeStyle HEK 293 cells, secreted, purified (Ni-NTA); not shown: Fc (human IgG1), C-terminal, kept
binds: all assays above
